According to the supplement of paper PMC12042874:
± gives the uncertainty stated by the source.

Assay: amyloid nucleation score (Sup35N fusion, yeast selection) (log enrichment); library NNK1; higher = more nucleation; inactive = no reads after selection
Summary of the method: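 On medium lacking adenine and uracil, psi-negative yeast expressing peptides of 20 random codons fused to Sup35N were grown 7 days at 30°C after a 24-hour induction with 100 μM copper sulfate. Illumina sequencing of input and output plasmid inserts gave the reads, and sequences under 100 input reads were excluded. The nucleation score is the DiMSum log enrichment of output over input reads, centred on the mode score of non-aggregating sequences.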

For CDGRW, which amyloid nucleation score is on record?
Its amyloid nucleation score is 0.186 ± 0.3.

For LTNTGEYQLVSTIPQGRHVV, which amyloid nucleation score is on record?
Its amyloid nucleation score is -0.222 ± 0.36.

Which amyloid nucleation score does the source give for SLNPALFTVSYPLVMLENDT here?
The amyloid nucleation score was 0.19 ± 0.29.

With DFVRRSNRYRYIVKIV as the substance, how does the amyloid nucleation score read?
The amyloid nucleation score was 0.203 ± 0.39.

With LMRDSCHDQQVLGCFYMSKL as the substance, how does the amyloid nucleation score read?
The amyloid nucleation score was -0.215 ± 1.2.

For SLSRCMIYDYR, which amyloid nucleation score is on record?
Its amyloid nucleation score is “inactive”.

With TFCRLISGPKIRL as the substance, how does the amyloid nucleation score read?
Its amyloid nucleation score is -0.058 ± 0.42.

With SYLFVKGLIYSLSRLCLEVN as the substance, how does the amyloid nucleation score read?
The amyloid nucleation score was -1.4 ± 0.7.

With LVFTCVGCWYQGKLWNE as the substance, how does the amyloid nucleation score read?
Its amyloid nucleation score is 4.25 ± 0.12.

Which amyloid nucleation score does the source give for GKFLRGGHLVFRWATLYLSV here?
Its amyloid nucleation score is -0.604 ± 0.97.

For FELICRW, which amyloid nucleation score is on record?
The amyloid nucleation score was 0.516 ± 1.1.

For MLPRPVRPVGGTRWESGVKL, which amyloid nucleation score is on record?
Its amyloid nucleation score is 0.548 ± 0.3.

For WLVGKTCNLYDLVLASLSNG, which amyloid nucleation score is on record?
Its amyloid nucleation score is -0.704 ± 0.4.

Which amyloid nucleation score does the source give for GKGWYTDSMCRIRMMNARLL here?
The amyloid nucleation score was 0.233 ± 0.34.

With ENPWFMCICYGANRVHVCNG as the substance, how does the amyloid nucleation score read?
The amyloid nucleation score was 0.539 ± 0.33.

For CGAMGVVL, which amyloid nucleation score is on record?
Its amyloid nucleation score is 0.112 ± 0.26.

For NSRGAQVCDICSIRMFNCCP, which amyloid nucleation score is on record?
Its amyloid nucleation score is 7.149 ± 0.048.

Which amyloid nucleation score does the source give for VFYLCSLLCLIVKRLGQGDC here?
The amyloid nucleation score was 0.484 ± 0.57.

With TARWAKPVADNGCVNNTFLW as the substance, how does the amyloid nucleation score read?
The amyloid nucleation score was 2.15 ± 0.27.

Which amyloid nucleation score does the source give for NFLPRTCMLVARFRRKTYLL here?
The amyloid nucleation score was 0.879 ± 0.54.

For MRTLWVSKSGIRG, which amyloid nucleation score is on record?
The amyloid nucleation score was -0.15 ± 0.72.

Which amyloid nucleation score does the source give for FTKFRYRTLINSYNFWGTGA here?
The amyloid nucleation score was -0.115 ± 1.4.

For SRFHVKLRLYFGSNIARTSK, which amyloid nucleation score is on record?
Its amyloid nucleation score is 6.618 ± 0.061.

With WNDWSYHCNF as the substance, how does the amyloid nucleation score read?
Its amyloid nucleation score is -0.11 ± 0.27.

For TRLGYISRDKGYSPCR, which amyloid nucleation score is on record?
The amyloid nucleation score was -0.146 ± 0.39.

For VCYRGECVDSDLLYLSCP, which amyloid nucleation score is on record?
The amyloid nucleation score was -0.389 ± 1.

For YMQGAFFQQTPSNLWQEGHY, which amyloid nucleation score is on record?
The amyloid nucleation score was -0.74 ± 0.84.

With LFFQANKLLVIYNCRIYTTF as the substance, how does the amyloid nucleation score read?
The amyloid nucleation score was 6.32 ± 0.07.

With CFSGPPMTESVYNPTSGNEH as the substance, how does the amyloid nucleation score read?
Its amyloid nucleation score is 0.152 ± 0.72.

With VNVPHKTWIPDGDLRYYLTL as the substance, how does the amyloid nucleation score read?
The amyloid nucleation score was -0.891 ± 0.85.

With LQPNLMEGAMSSGGTEEVTV as the substance, how does the amyloid nucleation score read?
The amyloid nucleation score was -0.565 ± 1.4.

With YFLLLRFY as the substance, how does the amyloid nucleation score read?
The amyloid nucleation score was 0.094 ± 0.44.

Which amyloid nucleation score does the source give for TYPLGNSESISVRLFIQYVT here?
The amyloid nucleation score was 1.39 ± 0.12.

With WGSASRLKVTLRRVRYTTTG as the substance, how does the amyloid nucleation score read?
The amyloid nucleation score was 0.813 ± 0.71.

Which amyloid nucleation score does the source give for MFVSLSSFSYLGKTLLVFFV here?
Its amyloid nucleation score is “inactive”.

For WLDRGW, which amyloid nucleation score is on record?
Its amyloid nucleation score is 0.282 ± 0.33.

With ADSLSDELFDYKTYIAVKSF as the substance, how does the amyloid nucleation score read?
The amyloid nucleation score was -0.645 ± 0.27.

For RCVSAFLLLFSMHRHG, which amyloid nucleation score is on record?
Its amyloid nucleation score is 1.28 ± 0.36.

Which amyloid nucleation score does the source give for FCDRNIIVCSELGKGWLWLR here?
Its amyloid nucleation score is 1.4 ± 0.25.

Which amyloid nucleation score does the source give for GAVIVCVYMQALVVIDRASA here?
Its amyloid nucleation score is -0.62 ± 0.94.

With ILFDLQPKFVRR as the substance, how does the amyloid nucleation score read?
Its amyloid nucleation score is 0.693 ± 0.48.

Which amyloid nucleation score does the source give for HAFFHYWPVCQWV here?
Its amyloid nucleation score is 4.57 ± 0.1.

Which amyloid nucleation score does the source give for KSTSYNLIDIMAGSSLTNNR here?
The amyloid nucleation score was 0.274 ± 0.28.

With CSAASVCPGD as the substance, how does the amyloid nucleation score read?
Its amyloid nucleation score is -0.116 ± 1.5.

For NPLTGAL, which amyloid nucleation score is on record?
The amyloid nucleation score was -0.406 ± 0.56.

For VFLKDSTVAGNVMTCDIRVV, which amyloid nucleation score is on record?
Its amyloid nucleation score is 0.078 ± 0.6.

With SHYSSIVYGAMEDSGL as the substance, how does the amyloid nucleation score read?
The amyloid nucleation score was -1.6 ± 2.4.

For FQSISGFSATHWIFFMEGTY, which amyloid nucleation score is on record?
Its amyloid nucleation score is 0.216 ± 0.45.

For AWVRLYWAGR, which amyloid nucleation score is on record?
Its amyloid nucleation score is 0.216 ± 0.68.

Which amyloid nucleation score does the source give for RTVQSGHSSARCKIIGPYHD here?
Its amyloid nucleation score is -0.077 ± 1.7.

With LPSNFCVKLSSTYYQVFG as the substance, how does the amyloid nucleation score read?
The amyloid nucleation score was -2.37 ± 1.8.

With MIMTW as the substance, how does the amyloid nucleation score read?
Its amyloid nucleation score is -0.418 ± 0.48.

Which amyloid nucleation score does the source give for GFVTWPLSRSPGSPGCAALM here?
Its amyloid nucleation score is 0.015 ± 0.39.

Which amyloid nucleation score does the source give for CTGFLRVWPLGEMYEDRR here?
The amyloid nucleation score was 0.12 ± 0.58.

With LWVVRI as the substance, how does the amyloid nucleation score read?
Its amyloid nucleation score is 0.67 ± 0.85.

Which amyloid nucleation score does the source give for KAVYLRVRGTHCVNNVALWK here?
Its amyloid nucleation score is 3.43 ± 0.18.

For LLGNSLAVSFSFNSLVNHYS, which amyloid nucleation score is on record?
Its amyloid nucleation score is 6.02 ± 0.063.

For KGLEPLCLRSFFLWRERFRD, which amyloid nucleation score is on record?
The amyloid nucleation score was -0.686 ± 0.49.

Which amyloid nucleation score does the source give for QMTVGQYSCL here?
The amyloid nucleation score was 0.45 ± 1.1.

For LYFWFVCNFAEIDFTITL, which amyloid nucleation score is on record?
Its amyloid nucleation score is 3.05 ± 0.097.

For IMMSYRFHFNNSERIRGCVR, which amyloid nucleation score is on record?
Its amyloid nucleation score is -0.321 ± 0.26.

For GCGMDGWDVQ, which amyloid nucleation score is on record?
The amyloid nucleation score was 0.103 ± 0.25.

Which amyloid nucleation score does the source give for IYFVIGYVNVCWGSATEDMT here?
The amyloid nucleation score was 5.46 ± 0.084.

With GISSVG as the substance, how does the amyloid nucleation score read?
The amyloid nucleation score was 0.677 ± 0.4.

For LNICGIWGGVVSEGARNVFY, which amyloid nucleation score is on record?
Its amyloid nucleation score is 0.063 ± 0.33.

Which amyloid nucleation score does the source give for LYLEGINVFSVMLHEVLHTG here?
Its amyloid nucleation score is -0.052 ± 0.43.

Which amyloid nucleation score does the source give for FIYLVLLSR here?
Its amyloid nucleation score is 1.32 ± 0.23.

With FSKTAGEVAYSLTESTDVRS as the substance, how does the amyloid nucleation score read?
The amyloid nucleation score was -1.26 ± 0.88.

For MDPTEEE, which amyloid nucleation score is on record?
Its amyloid nucleation score is -0.573 ± 1.4.

Which amyloid nucleation score does the source give for IVNRHEL here?
The amyloid nucleation score was 0.63 ± 0.9.

With TGDRCWLFEGYAFKEHCFAD as the substance, how does the amyloid nucleation score read?
The amyloid nucleation score was 2.54 ± 0.13.

For EHLVHLYKFSSAFERVGW, which amyloid nucleation score is on record?
The amyloid nucleation score was -0.352 ± 0.7.

Which amyloid nucleation score does the source give for KSRFSDGGSSWFCGTFMFYT here?
The amyloid nucleation score was -0.723 ± 0.42.

Which amyloid nucleation score does the source give for CFMVHNTVVRVGKE here?
Its amyloid nucleation score is 0.177 ± 0.7.

For RDWLLTLVLTLSQGPTTCAT, which amyloid nucleation score is on record?
The amyloid nucleation score was 0.247 ± 1.4.

Which amyloid nucleation score does the source give for PGSANASLTERFLMKMVGED here?
The amyloid nucleation score was 0.053 ± 0.78.

With RLLCCFCTWTLQMFCYSGCC as the substance, how does the amyloid nucleation score read?
The amyloid nucleation score was 5.981 ± 0.053.

Which amyloid nucleation score does the source give for RWIFSSWLLDGILGERCQTV here?
Its amyloid nucleation score is -0.484 ± 1.1.

With SDCVVVGHGVVRIYMDGVWP as the substance, how does the amyloid nucleation score read?
The amyloid nucleation score was 5.84 ± 0.065.

For HCMGGNLFLF, which amyloid nucleation score is on record?
The amyloid nucleation score was -0.463 ± 0.47.

Which amyloid nucleation score does the source give for PYSAQAFERRSHAIRGVSKN here?
The amyloid nucleation score was -0.438 ± 0.44.

For IYYRTMYYMVVSSIN, which amyloid nucleation score is on record?
The amyloid nucleation score was 0.394 ± 0.65.

With GRLHRRDMIGRHVDDSGPMS as the substance, how does the amyloid nucleation score read?
Its amyloid nucleation score is “inactive”.

With CVNKPLNGHLANMSWRGY as the substance, how does the amyloid nucleation score read?
The amyloid nucleation score was 1.15 ± 0.57.

Which amyloid nucleation score does the source give for LRRLRTSYMLRAVLKLFLQP here?
The amyloid nucleation score was 0.956 ± 0.58.

For RIAFFS, which amyloid nucleation score is on record?
Its amyloid nucleation score is 1.25 ± 0.57.

Which amyloid nucleation score does the source give for LAGMTSKHFTLRMMSHLDSY here?
The amyloid nucleation score was 0.043 ± 1.

Which amyloid nucleation score does the source give for EVASGVCTRIRLYSRCEWKG here?
Its amyloid nucleation score is 2.84 ± 0.091.
